Experiments:
[1] = target: IL-2Rβγ (as a pre-assembled heterodimer); assay: Binding affinity to rat IL-2Rβγ
[2] = tested on: rats; assay: Single-dose exploratory SC study in rats; assay type: in vivo
[3] = tested on: monkeys; assay: Toxicity studies in monkeys: ADA and PD effects; assay type: in vivo
Excerpt: The single- and repeat-dose toxicity of BMS-986326 were characterized in a series of studies in rats for up to 2 weeks and in monkeys up to 12 weeks using selected dosing frequencies. Pivotal good laboratory practice (GLP) repeat-dose studies in both species employed SC administration of BMS-986326 and consisted of two 2-week studies in rats using differing dose frequencies (once weekly [QW] vs twice weekly [2QW]), a 2-week once weekly dosing study in monkeys, and a 12-week (once every 3 week, Q3W) dosing study in monkeys. In addition, single-dose exploratory studies were initially completed in both rats and monkeys to explore the tolerability of BMS-986326, and a single-dose GLP IV toxicity and cardiovascular safety study was also completed in telemeterized monkeys using IV dosing to support IV administration in the first-in-human (FIH) single-ascending dose (SAD) study (IM034001).
In rats, BMS-986326 was noted to be highly immunogenic, with ADA formation occurring in 84% of BMS-986326-treated rats. In general, the presence of ADA was associated with reduced exposure and loss of PD activity, but was not associated with toxicity.
Intended and unintended PD effects occurred in a dose-dependent manner across all doses of each toxicity study and were generally more pronounced in monkeys than in rats. As an IL-2R agonist, BMS-986326 induced maximal phosphorylation of STAT5 in Treg cells (72% to 95%) across all doses in rats and monkeys, increased Treg cells (up to 63× in monkeys) and/or CD25 expression on CD4 Tregs (up to 4.5× in rats), and raised serum levels of IL-10 (up to 2× in rats and 87× in monkeys). In addition to the desired pharmacologic effects on Tregs, BMS-986326 also led to unintended effects including dose-dependent activation of conventional CD4 and CD8 T cell populations and NK cells, with concomitant elevation of serum IL-5, MCP-1, and perforin. At higher doses of BMS-986326 when dosed weekly in monkeys, increases in B cells (1.6×) and other inflammatory cytokines such as […] (7.9×), IL-1Ra (49×), and IL-6 (5.1×) were also noted. These inflammatory cytokines were not elevated when lower doses of BMS-986326 were given less frequently (Q3W) in the 12-week monkey toxicity study.

BMS-986326: recombinant fusion protein of human IL2 and extracellular domain of human CD25, (GGGS)3 linker, non-covalent self-blocking homodimer
Kd [1]: > 4 µM | dose not tolerated (morbidity or death on Day 5) ([2]; male rats, single SC dose): ≥ 25 mg/kg/day | mean AUC [0-96 h] ([2]; rats, 5 mg/kg): 501 µg·h/mL | dose with no adverse effects observed ([2]; rats, single SC dose): 5 mg/kg | mean AUC [0-96 h] at not tolerated doses ([2]; rats, ≥25 mg/kg/day): ≥ 2,080 μg·h/mL | increase in Treg cells [3]: up to 63 × | increase in serum levels of IL-10 [3]: ≤ 87 × | increase in B cells ([3]; higher doses dosed weekly): 1.6 × | increase in IFN-7 ([3]; higher doses dosed weekly): 7.9 × | increase in IL-1Ra ([3]; higher doses dosed weekly): 49 × | increase in IL-6 ([3]; higher doses dosed weekly): 5.1 × | ADA development ([3]; pivotal toxicity studies): generally did not develop

From patent US20240325495A1, “FUSION PROTEINS FOR THE TREATMENT OF DISEASE” (Bristol-Myers Squibb Company, priority 2020, published 2024)
